Laboratory results published in patent US20030175364A1, “Process for binding carotenoids to proteins and the products thereof” (priority 2002, published 2003).

Assay: Binding of lutein to selected proteins at ng scale (hexane extraction, absorbance at 280 and 446 nm)
Procedure: The carotenoid used in this Example 3 was lutein in dry cake form (Kemin Foods, L.C., Des Moines, Iowa). The cake was dissolved in THF at a concentration of approximately 5.28 mM (3 mg lutein in 1 ml THF). Four hundred nanograms of a selected protein (bovine and chicken albumin, gamma-globulins, Kunitz inhibitor, Bowman-Birk inhibitor, whey, and soy protein isolates 873 and 891 from Archer Daniels Midland, DeKalb, Ill.) were added to 200 μl Tris buffer (1.74 g Trizma crystals and 0.42 g calcium chloride added to 250 ml de-ionized H2O, pH 8.74) together with 2 μl of the lutein/THF solution. These reaction solutions were prepared in microcentrifuge tubes (1.5 ml), mixed, and allowed to react at 4° C., overnight, and in the dark. In addition, all reactions were performed in the presence of an alternative metal ion selected from the group Mg^++, Mn^++, Fe^+++, K^+, and Ca^++(MgCl2 6H2O, MnCl24H2O, FeCl3 6H2O, KCl, and CaCl2) at 60 μM concentration.
The hexane wash, vortex and centrifuge procedure was repeated six times. The supernatant was extracted and combined from all six washes and used later to compare absorbance vs. aqueous phase.
Protein and lutein content in the protein solutions and solvents used for extraction were determined by measuring the absorbance at 280 and 446 nm using a spectrophotometer.
The results are compiled and are reported in weight:weight or mol:mol (when available) ratios.

| Lutein/Protein Ratio mol/mol (Ca^2+ 60 μM) [mol/mol] | Lutein/Protein Ratio w/w (Ca^2+ 60 μM) [w/w] | Lutein/Protein Ratio mol/mol (Fe^3+ 60 μM) [mol/mol] | Lutein/Protein Ratio w/w (Fe^3+ 60 μM) [w/w] | Lutein/Protein Ratio mol/mol (K^+ 60 μM) [mol/mol] | Lutein/Protein Ratio w/w (K^+ 60 μM) [w/w] | Lutein/Protein Ratio mol/mol (Mg^+ 60 μM) | Lutein/Protein Ratio w/w (Mg^+ 60 μM) [w/w] | Lutein/Protein Ratio mol/mol (w/o metal ions) [mol/mol] | Lutein/Protein Ratio w/w (w/o metal ions) [w/w] | Molecule |
| --- | --- | --- | --- | --- | --- | --- | --- | --- | --- | --- |
| 506 | 4.29 | 365 | 3.1 | 383 | 3.24 | 294 mol/mol | 2.49 | 306 | 2.59 | Bovine Serum Albumin: bovine albumin |
| 67 | 0.84 | 71 | 0.9 | 95 | 1.2 | 116? mol/mol | 1.16 | 105 | 1.33 | Chicken Serum Albumin: chicken albumin (protein, UniProt P19121 24-615, looked up) Albumin: FARDAEHKSEIAHRYNDLKEETFKAVAMITFAQYLQRCSYEGLSKLVKDVVDLAQKCVANEDAPECSKPLPSIILDEICQVEKLRDSYGAMADCCSKADPERNECFLSFKVSQPDFVQPYQRPASDVICQEYQDNRVSFLGHFIYSVARRHPFLYAPAILSFAVDFEHALQSCCKESDVGACLDTKEIVMREKAKGVSVKQQYFCGILKQFGDRVFQARQLIYLSQKYPKAPFSEVSKFVHDSIGVHKECCEGDMVECMDDMARMMSNLCSQQDVFSGKIKDCCEKPIVERSQCIMEAEFDEKPADLPSLVEKYIEDKEVCKSFEAGHDAFMAEFVYEYSRRHPEFSIQLIMRIAKGYESLLEKCCKTDNPAECYANAQEQLNQHIKETQDVVKTNCDLLHDHGEADFLKSILIRYTKKMPQVPTDLLLETGKKMTTIGTKCCQLGEDRRMACSEGYLSIVIHDTCRKQETTPINDNVSQCCSQLYANRRPCFTAMGVDTKYVPPPFNPDMFSFDEKLCSAPAEEREVGQMKLLINLIKRKPQMTEEQIKTIADGFTAMVDKCCKQSDINTCFGEEGANLIVQSRATLGIGA |
| 31 | 0.78 | 29 | 0.74 | 24 | 0.6 | 29 mol/mol | 0.74 | 46 | 1.17 | Kunitz: soybean Kunitz proteinase inhibitor (protein, UniProt P01070 25-205, looked up) Trypsin inhibitor A: DFVLDNEGNPLENGGTYYILSDITAFGGIRAAPTGNERCPLTVVQSRNELDKGIGTIISSPYRIRFIAEGHPLSLKFDSFAVIMLCVGIPTEWSVVEDLPEGPAVKIGENKDAMDGWFRLERVSDDEFNNYKLVFCPQQAEDDKCGDIGISIDHDDGTRRLVVSKNKPLVVQFQKLDKESL |
